Measured values as given in article PMC9618391 (2022).
Where a chain is given by its changes, count along the chain named. Numbers in names are those of the source.

T1: μ1A (AP1M1) expressed from cDNA in COS-7 cells, Q9BXS5
T1 chain: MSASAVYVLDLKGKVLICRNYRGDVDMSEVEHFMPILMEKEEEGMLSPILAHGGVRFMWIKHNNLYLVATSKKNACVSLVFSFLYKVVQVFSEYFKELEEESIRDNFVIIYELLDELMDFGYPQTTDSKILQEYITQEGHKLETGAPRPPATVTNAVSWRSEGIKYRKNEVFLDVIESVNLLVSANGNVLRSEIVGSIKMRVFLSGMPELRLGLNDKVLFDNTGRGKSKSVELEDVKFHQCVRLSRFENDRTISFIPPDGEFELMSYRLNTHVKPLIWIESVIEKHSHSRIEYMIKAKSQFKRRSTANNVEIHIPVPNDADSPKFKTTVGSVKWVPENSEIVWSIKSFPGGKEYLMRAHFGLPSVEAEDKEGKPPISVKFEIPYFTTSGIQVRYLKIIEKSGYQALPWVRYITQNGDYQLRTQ

B1: wild-type human sodium/iodide symporter (hNIS), Q92911 L562A; L563A (protein)
chain: MEAVETGERPTFGAWDYGVFALMLLVSTGIGLWVGLARGGQRSAEDFFTGGRRLAALPVGLSLSASFMSAVQVLGVPSEAYRYGLKFLWMCLGQLLNSVLTALLFMPVFYRLGLTSTYEYLEMRFSRAVRLCGTLQYIVATMLYTGIVIYAPALILNQVTGLDIWASLLSTGIICTFYTAVGGMKAVVWTDVFQVVVMLSGFWVVLARGVMLVGGPRQVLTLAQNHSRINLMDFNPDPRSRYTFWTFVVGGTLVWLSMYGVNQAQVQRYVACRTEKQAKLALLINQVGLFLIVSSAACCGIVMFVFYTDCDPLLLGRISAPDQYMPLLVLDIFEDLPGVPGLFLACAYSGTLSTASTSINAMAAVTVEDLIKPRLRSLAPRKLVIISKGLSLIYGSACLTVAALSSLLGGGVLQGSFTVMGVISGPLLGAFILGMFLPACNTPGVLAGLGAGLALSLWVALGATLYPPSEQTMRVLPSSAARCVALSVNASGLLDPALLPANDSSRAPSSGMDASRPALADSFYAISYLYYGALGTLTTVLCGALISCLTGPTKRSTLAPGAAWWDLARQTASVAPKEEVAILDDNLVKGPEELPTGNKKPPGFLPTNEDRLFFLGQKELEGAGSWTPCVGHDGGRDQQETNL
B2: wild-type human sodium/iodide symporter (hNIS), Q92911 Y118A (protein)
chain: B1 chain with Y118A, A562L, A563L
B3: wild-type human sodium/iodide symporter (hNIS), Q92911 Y120A (protein)
chain: B1 chain with Y120A, A562L, A563L
B4: wild-type human sodium/iodide symporter (hNIS), Q92911 L121A (protein)
chain: B1 chain with L121A, A562L, A563L
B5: wild-type human sodium/iodide symporter (hNIS), Q92911 L587A (protein)
chain: B1 chain with A562L, A563L, L587A
B6: wild-type human sodium/iodide symporter (hNIS), Q92911 L594A (protein)
chain: B1 chain with A562L, A563L, L594A
B7: wild-type human sodium/iodide symporter (hNIS), Q92911 L583A (protein)
chain: B1 chain with A562L, A563L, L583A

Target: T1, μ1A (AP1M1) expressed from cDNA in …
Assay: co-immunoprecipitation with Western blot quantification
Conditions: chain shown with the change; COS-7 cells cotransfected with hNIS and μ1A; IP α-μ1A, WB α-hNIS; parent: est. 100; read off a plot

| percent of parent (% Relative to hNIS WT) | Binder |
| --- | --- |
| 9 | B1 |
| 80 | B2 |
| 65 | B3 |
| 17 | B4 |
| 100 | B5 |
| 100 | B6 |
| 60 | B7 |
